Results from the supplement of paper PMC6757056.
± gives the standard deviation of the averaged measurements.

B1: library; a variant is named by its letters at N, in order (parent)
chain: GCUGUCACCGGUGUAUUACCCUAGUGGUCGACCGGUCUGAUGAGUCUNNNNNNAGACGAAACAGC

How the values were obtained:
[1] = variants of: B1; assay: FACS-Seq fitted mean relative fluorescence mCherry/BFP without ligand (log10 relative fluorescence); ligand: hypoxanthine (xanthine aptamer); higher = higher reporter protein expression; settings: HEK293T, ligand present: no
Protocol: (§1)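 Hammerhead (sTRSV) ribozyme switch libraries with a ligand aptamer grafted on stem I and a randomized N4-6 loop II, cloned into the 3' UTR of mCherry and transiently transfected into HEK293T cells; RNA-Seq 72 h post transfection with ligand added 1 h before transfection; RNA read count / plasmid DNA read count normalized to the non-cleaving sTRSVctl (x100), log10; sequences with >100 DNA reads. FACS-Seq: lentiviral library sorted into 6 bins after 48 h ligand, log-normal fit mean of mCherry/BFP scaled to controls. Printed sequences are partial switch sequences.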

[2] = variants of: B1; assay: normalized RNA/DNA level with ligand (relative to sTRSVctl = 100) (log10 (% of sTRSVctl)); ligand: hypoxanthine (xanthine aptamer); higher = less ribozyme self-cleavage, higher mRNA level; settings: ligand concentration (+) RNA-Seq: 5 mM, HEK293T, reporter: mCherry (pCS4076), ligand present: yes
Protocol: as §1

[3] = variants of: B1; assay: normalized RNA/DNA level without ligand (relative to sTRSVctl = 100) (log10 (% of sTRSVctl)); ligand: hypoxanthine (xanthine aptamer); higher = less ribozyme self-cleavage, higher mRNA level; settings: HEK293T, reporter: mCherry (pCS4076), ligand present: no
Protocol: as §1

[4] = variants of: B1; assay: FACS-Seq fitted mean relative fluorescence mCherry/BFP with ligand (log10 relative fluorescence); ligand: hypoxanthine (xanthine aptamer); ligand concentration (+) FACS-Seq: 5 mM; higher = higher reporter protein expression; settings: HEK293T, ligand present: yes
Protocol: as §1

Variant	FACS-Seq fitted mean (log10) [1]	normalized RNA/DNA level with ligand (log10) [2]	normalized RNA/DNA level without ligand (log10) [3]	FACS-Seq fitted mean (log10) [4]
CAAGAG	0.342 ± 0.095	1.86 ± 0.036	1.57 ± 0.03	0.473 ± 0.018
GAAGAG	-0.121 ± 0.02	1.79 ± 0.022	1.27 ± 0.032	0.521 ± 0.037
UAAGAG	0.312 ± 0.071	1.833 ± 0.013	1.528 ± 0.011	0.422 ± 0.032
AAAGAG	-0.112 ± 0.064	1.8 ± 0.025	1.32 ± 0.042	0.451 ± 0.045
AAAGAU	0.523 ± 0.055	1.895 ± 0.016	1.68 ± 0.017	0.708 ± 0.025
CAAGCA	0.544 ± 0.054	1.964 ± 0.012	1.7 ± 0.063	0.609 ± 0.094
GAAGCA	0.802 ± 0.069	1.96 ± 0.03	1.76 ± 0.049	0.779 ± 0.075
AAAGCA	0.391 ± 0.034	1.93 ± 0.043	1.77 ± 0.035	0.503 ± 0.023
CAAGCC	0.17 ± 0.076	1.96 ± 0.011	1.87 ± 0.028	0.404 ± 0.0094
GAAGCG	0.1393 ± 0.001	1.8561 ± 0.0014	1.4 ± 0.075	0.56 ± 0.016
UAAGCG	-0.442 ± 0.031	1.909 ± 0.0091	1.6 ± 0.024	0.233 ± 0.018
AAAGCG	0.0919 ± 0.015	1.82 ± 0.026	1.32 ± 0.086	0.539 ± 0.023
AAAGCU	-0.307 ± 0.014	1.94 ± 0.026	1.85 ± 0.034	-0.41 ± 0.022
GAAGGA	0.247 ± 0.034	1.92 ± 0.021	1.64 ± 0.031	0.559 ± 0.021
UAAGGA	0.215 ± 0.031	1.88 ± 0.041	1.608 ± 0.0063	0.472 ± 0.057
AAAGGA	0.0795 ± 0.041	1.9 ± 0.031	1.58 ± 0.037	-0.105 ± 0.2
CAAGGC	-0.0753 ± 0.017	1.936 ± 0.017	1.84 ± 0.024	-0.0781 ± 0.056
AAAGGC	-0.66 ± 0.0082	1.91 ± 0.035	1.781 ± 0.0092	-0.684 ± 0.085
GAAGGG	-0.0424 ± 0.023	1.806 ± 0.01	1.324 ± 0.0061	0.431 ± 0.059
UAAGGG	0.3343 ± 0.00083	1.878 ± 0.013	1.4441 ± 0.0011	0.519 ± 0.015
AAAGGG	0.0328 ± 0.0085	1.753 ± 0.0035	1.32 ± 0.073	0.292 ± 0.084
CAAGGU	0.232 ± 0.021	1.883 ± 0.015	1.78 ± 0.029	0.388 ± 0.027
UAAGGU	0.356 ± 0.021	1.94 ± 0.042	1.53 ± 0.027	0.602 ± 0.06
AAAGGU	0.195 ± 0.021	1.9 ± 0.054	1.61 ± 0.053	0.526 ± 0.025

Variant	FACS-Seq fitted mean (log10) [1]	normalized RNA/DNA level with ligand (log10) [2]	normalized RNA/DNA level without ligand (log10) [3]	FACS-Seq fitted mean (log10) [4]
AAAGUA	0.554 ± 0.029	1.9 ± 0.023	1.73 ± 0.053	0.61 ± 0.032
CAAGUC	0.736 ± 0.067	1.95 ± 0.069	1.921 ± 0.018	0.635 ± 0.04
GAAGUG	-0.0452 ± 0.0093	1.8 ± 0.024	1.276 ± 0.012	0.468 ± 0.037
UAAGUG	-0.334 ± 0.04	1.891 ± 0.0081	1.653 ± 0.015	0.146 ± 0.027
AAAGUG	0.148 ± 0.035	1.81 ± 0.034	1.31 ± 0.043	0.47 ± 0.012
GAAGUU	-0.155 ± 0.12	1.966 ± 0.0047	1.831 ± 0.008	-0.587 ± 0.17
AAAGUU	0.306 ± 0.0051	1.91 ± 0.026	1.823 ± 0.0039	0.548 ± 0.017
CAAUAA	0.566 ± 0.035	1.89 ± 0.04	1.654 ± 0.0078	0.578 ± 0.07
GAAUAA	0.317 ± 0.056	1.91 ± 0.04	1.78 ± 0.0034	0.497 ± 0.03
UAAUAA	0.267 ± 0.015	1.902 ± 0.012	1.78 ± 0.023	0.321 ± 0.019
AAAUAA	0.684 ± 0.016	1.89 ± 0.024	1.74 ± 0.025	0.775 ± 0.11
CAAUAC	0.32 ± 0.022	1.93 ± 0.069	1.767 ± 0.01	0.507 ± 0.0056
GAAUAC	0.23 ± 0.012	1.89 ± 0.044	1.713 ± 0.0067	0.499 ± 0.062
GAAUAG	0.0583 ± 0.0095	1.786 ± 0.011	1.35 ± 0.026	0.459 ± 0.05
UAAUAG	0.548 ± 0.036	1.874 ± 0.0076	1.631 ± 0.014	0.666 ± 0.019
AAAUAG	0.258 ± 0.041	1.842 ± 0.0027	1.44 ± 0.018	0.487 ± 0.016
UAAUAU	0.353 ± 0.012	1.91 ± 0.061	1.796 ± 0.005	0.558 ± 0.096
AAAUAU	-0.168 ± 0.02	1.924 ± 0.012	1.763 ± 0.0044	-0.451 ± 0.1
GAAUCA	0.438 ± 0.055	1.94 ± 0.065	1.809 ± 0.013	0.46 ± 0.066
AAAUCA	0.598 ± 0.077	1.927 ± 0.0036	1.8121 ± 0.0018	0.629 ± 0.082
CAAUCC	0.406 ± 0.038	1.97 ± 0.086	1.82 ± 0.026	0.468 ± 0.05
GAAUCG	0.14 ± 0.0063	1.84 ± 0.02	1.4 ± 0.053	0.439 ± 0.05
UAAUCG	-0.0742 ± 0.028	1.93 ± 0.021	1.633 ± 0.014	0.247 ± 0.059
AAAUCG	0.0899 ± 0.022	1.86 ± 0.04	1.36 ± 0.014	0.509 ± 0.04

Variant	FACS-Seq fitted mean (log10) [1]	normalized RNA/DNA level with ligand (log10) [2]	normalized RNA/DNA level without ligand (log10) [3]	FACS-Seq fitted mean (log10) [4]
UAAUCU	0.5653 ± 0.0022	1.96 ± 0.043	1.87 ± 0.061	0.561 ± 0.067
GAAUGA	0.481 ± 0.081	1.922 ± 0.0024	1.66 ± 0.057	0.688 ± 0.028
AAAUGA	0.89 ± 0.066	1.924 ± 0.0069	1.688 ± 0.0025	0.709 ± 0.13
GAAUGC	0.275 ± 0.016	1.863 ± 0.014	1.53 ± 0.03	0.577 ± 0.011
AAAUGC	-0.0368 ± 0.059	1.92 ± 0.029	1.76 ± 0.026	0.173 ± 0.096
CAAUGG	-0.334 ± 0.031	1.82 ± 0.071	1.42 ± 0.042	0.178 ± 0.12
GAAUGG	-0.206 ± 0.053	1.76 ± 0.037	1.216 ± 0.012	0.417 ± 0.012
UAAUGG	0.218 ± 0.021	1.87 ± 0.044	1.53 ± 0.052	0.457 ± 0.038
AAAUGG	0.175 ± 0.024	1.78 ± 0.025	1.33 ± 0.019	0.502 ± 0.013
CAAUGU	0.483 ± 0.12	1.91 ± 0.034	1.86 ± 0.062	0.48 ± 0.078
GAAUGU	0.27 ± 0.024	1.91 ± 0.022	1.718 ± 0.0052	0.381 ± 0.07
CAAUUA	0.8094 ± 0.0076	1.89 ± 0.049	1.728 ± 0.0045	0.753 ± 0.03
GAAUUA	0.374 ± 0.05	1.91 ± 0.043	1.804 ± 0.012	0.557 ± 0.089
UAAUUA	0.737 ± 0.055	1.92 ± 0.081	1.87 ± 0.032	0.65 ± 0.063
AAAUUA	-0.311 ± 0.019	1.899 ± 0.016	1.83 ± 0.055	-0.0839 ± 0.038
GAAUUC	0.407 ± 0.28	1.929 ± 0.0056	1.9 ± 0.039	0.388 ± 0.089
UAAUUC	0.569 ± 0.0061	1.96 ± 0.029	1.91 ± 0.0049	0.671 ± 0.032
AAAUUC	0.489 ± 0.043	1.95 ± 0.041	1.87 ± 0.033	0.603 ± 0.015
CAAUUG	0.324 ± 0.016	1.96 ± 0.026	1.894 ± 0.014	0.498 ± 0.044
GAAUUG	0.0724 ± 0.04	1.81 ± 0.032	1.4 ± 0.076	0.434 ± 0.011
AAAUUG	0.0713 ± 0.0046	1.88 ± 0.035	1.54 ± 0.049	0.431 ± 0.0093
CAAUUU	-0.039 ± 0.03	1.932 ± 0.015	1.83 ± 0.034	0.406 ± 0.03
UAAUUU	-0.253 ± 0.046	1.98 ± 0.034	1.892 ± 0.01	-0.129 ± 0.063
AAAUUU	0.596 ± 0.082	1.95 ± 0.043	1.9 ± 0.034	0.577 ± 0.029
